Results on three proteins are retold here after PMC3143262 (Journal of molecular biology, 2011).

This data set concerns the molecule itself. Briefly: SEC. For orientation: In gel filtration, larger molecules generally elute earlier.

B1: CD147 Ig0 wild-type (domain or fragment, human, UniProt P35613 22-138, looked up)
chain: AAGFVQAPLSQQRWVGGSVELHCEAVGSPVPEIQWWFEGQGPNDTCSQLWDGARLDRVHIHATYHQHAASTISIDTLVEEDTGTYECRASNDPDRNHLTRAPRVKWVRAQAVVLVLE
For the protein B1, the stoichiometry N – broadly, a count of units in the complex or per binding partner – is 2.

B2: CD147 Ig0 K126A (domain or fragment, human, UniProt P35613 22-138, looked up)
chain: AAGFVQAPLSQQRWVGGSVELHCEAVGSPVPEIQWWFEGQGPNDTCSQLWDGARLDRVHIHATYHQHAASTISIDTLVEEDTGTYECRASNDPDRNHLTRAPRVAWVRAQAVVLVLE
Consider B2, for which the “stoichiometry N” value was determined as 2.

B3: CD147 Ig0 C67M (domain or fragment, human, UniProt P35613 22-138, looked up)
chain: AAGFVQAPLSQQRWVGGSVELHCEAVGSPVPEIQWWFEGQGPNDTMSQLWDGARLDRVHIHATYHQHAASTISIDTLVEEDTGTYECRASNDPDRNHLTRAPRVKWVRAQAVVLVLE
modifications: Selenomethionine labeled for the crystal structure
As to B3, the “stoichiometry N” value was 2.
